Patent US20050136055A1

Experiments:
[1] = target: Fc receptors (FcR) on human leukocytes (human); test: 125I-labelled IgG1 control on human leukocytes, 4 C
[2] = target: Fc receptors (FcR) on cynomolgus leukocytes (cynomolgus); test: 125I-labelled IgG1 control on cynomolgus leukocytes, 4 C

specific binding as % of the total bound radioactivity [1]: 56% | specific binding as % of the total bound radioactivity [2]: 51%
Substance: human IgG1 control mAb (antibody)
